Measured values: article PMC6740199 (Molecular Biology of the Cell, 2019)

Molecular target: T1, six-histidine-tagged Bem1 (His6-Bem1), carrying Bem1 residues from 44 to 551 (S. cerevisiae, UniProt P29366 44-551)
T1 sequence: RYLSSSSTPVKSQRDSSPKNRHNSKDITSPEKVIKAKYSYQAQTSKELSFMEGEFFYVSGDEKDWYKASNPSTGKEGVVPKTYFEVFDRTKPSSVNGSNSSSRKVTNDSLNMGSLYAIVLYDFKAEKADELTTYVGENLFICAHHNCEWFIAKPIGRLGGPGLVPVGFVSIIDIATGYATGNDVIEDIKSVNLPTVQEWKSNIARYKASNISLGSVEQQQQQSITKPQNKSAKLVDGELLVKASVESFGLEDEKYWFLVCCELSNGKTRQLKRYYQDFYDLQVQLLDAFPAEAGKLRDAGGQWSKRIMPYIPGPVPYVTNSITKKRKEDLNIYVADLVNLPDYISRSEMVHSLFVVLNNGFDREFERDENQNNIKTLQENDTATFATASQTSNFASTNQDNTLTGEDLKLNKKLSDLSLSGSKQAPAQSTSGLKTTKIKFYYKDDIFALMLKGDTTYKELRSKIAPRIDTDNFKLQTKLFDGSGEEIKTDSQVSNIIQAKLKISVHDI
Assay: pull-down

B1: GST (glutathione S-transferase)-Rsr1 (natural protein)
chain: MRDYKLVVLGAGGVGKSCLTVQFVQGVYLDTYDPTIEDSYRKTIEIDNKVFDLEILDTAGIAQFTAMRELYIKSGMGFLLVYSVTDRQSLEELMELREQVLRIKDSDRVPMVLIGNKADLINERVISVEEGIEVSSKWGRVPFYETSALLRSNVDEVFVDLVRQIIRNEMESVAVKDARNQSQQFSKIESPSTRLPSSAKQDTKQSNNKQSSKGLYNKSSQGQAKVKQSTPVNEKHKPSHAVPKSGSSNRTGISATSQQKKKKKNASTCTIL
  binding result: binds
